The nature of the data set: soluble on expression in E. coli; label from the status in PepcDB or PDB records.
In the case of “MEANMPKRKEPGRSLRIKVISMGNAEVGKSCIIKRYCEKRFVSKYLATIGIDYGVTKVHVRDREIKVNIFDMAGHPFFYEVRNEFYKDTQGVILVYDVGQKDSFDALDAWLAEMKQELGPHGNMENIIFVVCANKIDCTKHRCVDESEGRLWAESKGFLYFETSAQTGEGINEMFQTFYISIVDLCENGGKRPTTNSSASFTKEQADAIRRIRNSKDSWDMLGVKPGASRDEVNKAYRKLAVLLHPDKCVAPGSEDAFKAVVNARTALLKNIK”, the “soluble on expression in E. coli” value was “soluble”.

For the sequence “MECLKAEFFSPIALFKTPFSIKGIETYPLPPYSTVIGLLYTASGKKWKGERFNISVQGDYEAIFRDYVRFRKYNKKDKKLETLPLEVPLFYNFRLTVHILGDENLLKEFEKALKFPYVFPYLSGGEYPVKITKVKMVACRKEYFDTFNIPKNAYIPENIFTEEFRVSLEGHGVYYRVPSFLISQKPRQHEWVGVYYVQKGTKVSEMELLVDEEGEPVWV”, the “soluble on expression in E. coli” value is on record as “soluble”.

Turning to “MEEKKTESATKNVKKVNLLDHIAIKHLLDESVSDIVTSRGYKEDGSFTSTGLVVSSKLPRFSDQYTLTIDSADPQSISAGKSVQFTKSVTQWLTKDGVLVEGLFWKDVEALVKEYTEAGEPKKKR”, the “soluble on expression in E. coli” value is reported as “not soluble”.

Turning to “MEEKVYLDKLAKRDIKPTAIRLLILKSMMEAGRAVSQLDLETLLDTVDKSTISRTITLFLSHHLIHSIDDGSGSWKYAVCDDSCNCVLKDLHSHFYCEKCHRTFCLEKIHIPVIDLPKGFTLHSVNYVVKGVCAECSKV”, the “soluble on expression in E. coli” value is “not soluble”.

As for “MEEKWCNYLLNEGRDWKTMNKTILKTCIISAVLGGVLLTEKNGEVKAEEITPQTNHTGVFKDVPKGHWAYEAIQQLTDEKIVFGYDDGRFGFGDNVTREQVAALLYRYFNLAEEKNYENPYGDVSEESTSYIKEILSLTEMGVFKGDEHGNFRPKASLTRAEMAQVLTNAFHLKAKSNHTFNDVSTNSWASNAISAVQTNNIAKGVGGGNFAPNMDVTREQYAQFLYNAIQETEKTQETKGQLLASILGETNWQGTKVYDKDHNDVTKENQNFIGLAKYDAKTARYEFFNASTGESRNDSGTFFITNDGKKRVLISETQNYQAVVELTQLDKEKFTYKRMGKDAKRNDVEVFVEHIPYQEKELSFTRPDKNLESSTGKIVTDVDGDKILSSTLWNGTVVLDEQGNNVTKYNSNLISLAKYDKNTNKYEFFNVNTGESRGDYGFFDVVHDNKIRAHVSLGNNKYGAVLELTELNKEKFTYTRMGKDANGKDIKIFVEHEPNTGDLKPNFTK”, the “soluble on expression in E. coli” value is “not soluble”.

Consider “MEELQDDYEDMMEENLEQEEYEDPDIPESQMEEPAAHDTEATATDYHTTSHPGTHKVYVELQELVMDEKNQELRWMEAARWVQLEENLGENGAWGRPHLSHLTFWSLLELRRVFTKGTVLLDLQETSLAGVANQLLDRFIFEDQIRPQDREELLRALLLKHSHAGELEALGGVKPAVLTRSGDPSQPLLPQHSSLETQLFCEQGDGGTEGHSPSGILEKIPPDSEATLVLVGRADFLEQPVLGFVRLQEAAELEAVELPVPIRFLFVLLGPEAPHIDYTQLGRAAATLMSERVFRIDAYMAQSRGELLHSLEGFLDCSLVLPPTDAPSEQALLSLVPVQRELLRRRYQSSPAKPDSSFYKGLDLNGGPDDPLQQTGQLF”, for which the “soluble on expression in E. coli” value is recorded as “soluble”.

“MEENKQRVKSMINILQLVAPGTPLREGIDNVLRAQTGGLIVLGYNEQIKSIVDGGFHINCAFSPASLYELAKMDGALILNETGSKILIANAQLVPDSSIDSIETGMRHRTAERVAKQTGSLVVAISQRRNVITLYQGNLRYTLKDIGVILTKANQAIQTLEKYKAVWNDGITNLGILEFEEVVTMSEVVHVLHSVEMVLRIKNEILSYIHELGTEGRLIRLQLTELLADLEAEAALLIKDYHQEKTQDHHQILKKLQDLANTQLLEDSDLVKLLGYPGQTSLEESVTPRGYRITSKISRVPPLIIENLINRFKTLQGVCRATINELDDVEGIGEVRAKKIREGLKRIQEHLYMSRHN”: the “soluble on expression in E. coli” value is given as “not soluble”.

“MEEPEEPADSGQSLVPVYIYSPEYVSMCDSLAKIPKRASMVHSLIEAYALHKQMRIVKPKVASMEEMATFHTDAYLQHLQKVSQEGDDDHPDSIEYGLGYDCPATEGIFDYAAAIGGATITAAQCLIDGMCKVAINWSGGWHHAKKDEASGFCYLNDAVLGILRLRRKFERILYVDLDLHHGDGVEDAFSFTSKVMTVSLHKFSPGFFPGTGDVSDVGLGKGRYYSVNVPIQDGIQDEKYYQICESVLKEVYQAFNPKAVVLQLGADTIAGDPMCSFNMTPVGIGKCLKYILQWQLATLILGGGGYNLANTARCWTYLTGVILGKTLSSEIPDHEFFTAYGPDYVLEITPSCRPDRNEPHRIQQILNYIKGNLKHVVIEGRGSHHHHHH”: the “soluble on expression in E. coli” value is reported as “soluble”.

Turning to “MEESIMSIKVDMSLDCKGLACPMPIVKTKKAIEGLAPGQVIEVKATDKGSTIDIKSWASKVGHQYIGTKHEGDVLVHYVRKANEHEVNEVVKYPHTITNAELQSILSHGEESIVLDVREAAEFAFGHIPSAISVPLGELDSAVLDETKRIYVICRTGNRSDVACHMLKEKGYANVKNVIPGMLEWKGNVEK”, the “soluble on expression in E. coli” value is “not soluble”.

For “MEEVKDDKTYKGFVDRLTLGITRVLENLPGVLDVRFVEKAPAEKRCLLSWEQKNNCALPEDLRDFYLTTDGFMLAWNSKLENEVVPVGCMMINNVAQLRPLIQSNVYCLPNAPTLADLDFDDDIDGSDGPEKPHFDLRSRIFELDSCNGNGKVCLVYKSCSPGVMAQQCEVWFLDRSLFWHYLTPSFTAYYRLMITHLGLPEWQYNFTPYGPSPQAKQWAALYQPLTFHSDPHLDTSSEPFLNKLDPTKAFRGKAKPPTPKKKQPAQVPASGTGTAKGQGLSGRHSVAKR”, the “soluble on expression in E. coli” value is recorded as “soluble”.

Turning to “MEFGASFAYRRIDAHVEATLQEAAQVLEKLVIERDAESAITVASQGTPDAISITQAAHETISIDSILRSSKQPKATIRTPRDSNKNRKLTFPPARIGFKSEQLETCDSGITDSTIDQDPPTPDSLFPSAIYIPAKQKPQMTVSISATTASSCSNKSLYRKHIEKLAIEPLEDIKHLKCRGLKKSKPDDLFPKATYDAGTGKPKMALSPSSMVSVDLSYASTTAKSNSLAYQPMEFVSSDGRVKLWLQPLEKQKKKNSEKSKKRERCIDDAPIPPKQLQSSTKLNIENRTKFSTNLSIGDHVIDLSGILNGSMKKKNLAKLVINGQSYSI”, the “soluble on expression in E. coli” value is reported as “not soluble”.

On to “MEFTGDLGLGHVTIRASTSSNIRSEVLMEGEYGFIGKSIPTDNPAGQRIIFCGGEGTSSTTGAQITLYGANNTDSRRIVYNGDEHLFQSADVKPYNDNVTALGGPSNRFTTAYLGSNPIVTANGERKTEPVVFDDAFLDAWGDVHYIMYQWLDAVQLKGNDARIHFGVIAQQIRDVFIAHGLMDENSTNCRYAVLCYDKYPRMTDTVFSHNEIVEHTDEEGNVTTTEEPVYTEVVIHEEGEEWGVRPDGIFFAEAAYQRRKLERIEARLSALEQK”, for which the “soluble on expression in E. coli” value is on record as “soluble”.

In the case of “MEGNQAGSSLDSLIASFNKRIGELQELVIARNMYPASTIPDLSAIDTALSSMELQVQSIKDRLREETEAIPKAKKLIEASLKQQGKLQKMSIYAPSHFPDKATMLNSDLNRCLLQENAKQYEQHSTLSSLKFDEEAAVLPKEKKGRGSPPLWYITVEELNSLSSYMRGRLTLEKVNAAINDMASYAEANAHLIAASKQKLAENLWEKALKLRDIVTEQAVKGKHFFLETDMKGPSLKLDNTGKAILTVLRHLGRISETRIGQNRVIILMKPH”, the “soluble on expression in E. coli” value is given as “soluble”.

With “MEGPLSKWTNMVHGWQYRWFKIENDTLLYYTSREKMLKGQQRGQIRLTGAVVGIDGENNSLFTITVEGKTFHMQGRDLRERNQWVRILENSIRASSGYAKNVSVGTTPSQHFKQRTEEANEFLKTLVEKVKALEQLKSGERAVDEKKTIDSLIAASNNLTNNVKHAIIYLQMAQARLDPNMKTEKLMFTHPDLNEKPSSRETPGTVSDSTQTSTDKPISGIQHLDHLKPQRAESYASSDEEEFYDADEELIDLDNFESEKSGQESGDSNRTSDAAIMSSDEDGYDFGDSNEDFDEIYNNAEEHDIGNVQQDHGSVLMHLLSQVSVGMDLTKVTLPTFILERRSLLEMYADFFAHPDLFIATNGNDSAEKRMIAVVRYYLNSFYAARKSGVAKKPYNAILGETFRCRYSVPNSSLSGKKTESGPWPGSDEKQLTFIAEQVSHHPPISAFYAEMPSEGISFNAHIYTKSSFLGLSIGVASIGEGILTLHNYGDEQYTITFPSGYGRSIMSTPWFEFGGKVKVECEKTGYRADIEFLTKPFFGGKPHRIQGSICRDGAKKPVLTLRGEWNGTMYAKTQNGEEYVFVDVKAKPEVKKECVPVMQQGKRESRRLWRHVTAALLRNRIQTATTSKRFIEQRQRKEAKERLESGEKWTPLLFDTTDKDGEWMYKQKFGVRKAV”, the “soluble on expression in E. coli” value is “not soluble”.

As to “MEHRYRTNLKKVFLSDSELNQLNINIDQSGCKSFSEYARRTLLDPGMNFITIDTNGYQDLVFELKRIGNNINQIARSVNQSQLISGEELQELKKGIGELIKEVDKEFNLQAQKLKEFHGHH”, the “soluble on expression in E. coli” value is listed as “not soluble”.

For “MEIANKRAWREYISYEIIRLQMHQILTLFLLALAASPSQAVTDRSCGSDLSRLWLDIVFVVDNSKNMNLYNVYNTISNLFNPFVQIGTGYDDPRSTRVGFITYNWNATDVADFYKLQSYSDLSSQIQALSVTPLSRADETYIDTGLQAAINMINATGGLRDNYKKVVVLFTSKYNYYHTYPEDLTDYLKSTGVTIITVNTGGDSYTTQSLRDKIASKGMAFAMSDGNTTAELQKAVLAINCFCRPGWMQYHYPLKSDNIYSNYGVCLYRPDSAMTKFAAQSYCHSLTTNGYLVSELDQQKRAFNWDYLNSKGITINAFYNGLTNYNGTWWWDQPSGQPLWPLNPNSGAPPQRSGCVVDMKYSDGSISWTPISCTSFFRFLCESVACDTDNYCEF”, the “soluble on expression in E. coli” value is listed as “not soluble”.

For the sequence “MEIDKEILKRCKKYDRASFSQLFHLYEKYLYNLCYGYTQNTSDAMDLVQEIYIKVFKNIKNFDENLPFHPWVRKISVNTCLNFKRDNRGNVMSLNSKYYDSEFEEEDRLAEDYNMEQEVVNRINNEVVKESIKKLTYDYRMVIMLRYYEDLSYDEIASVLDMPIGTVKTKIYRAKNVLKKSLEKKLEVKK”, the “soluble on expression in E. coli” value is listed as “not soluble”.

In the case of “MEIEVKFRVNFEDIKRKIEGLGAKFFGIEEQEDVYFELPSPKLLRVRKINNTGKSYITYKEILDKRNEEFYELEFEVQDPEGAIELFKRLGFKVQGVVKKRRWIYKLNNVTFELNRVEKAGDFLDIEVITSNPEEGKKIIWDVARRLGLKEEDVEPKLYIELINGLEHHHHHH”, the “soluble on expression in E. coli” value is “soluble”.

Turning to “MEKDAQAGEPEEEEVDDELSSTDLYEDSMAEVTLNETRGGHDSDPFDRSGEYDEDVDLAAPPPITPDIPEIPADVLISLKNRAEGTAIDLKNLKNPFDDSQKVDESEVEAPLK”, the “soluble on expression in E. coli” value is “soluble”.

Regarding “MEKIGETMAKLGQNTRVNSDQLIQTILADPEVASFISQHHLSQEQINLSLSKFNQFLVERQKYQLKDPSYIAKGYQPILAMNEGYADVSYLETKELVEAQKQAAISERIQLVSLPKSYRHIHLSDIDVNNASRMEAFSAILDFVEQYPSAEQKGLYLYGDMGIGKSYLLAAMAHELSEKKGVSTTLLHFPSFAIDVKNAISNGSVKEEIDAVKNVPVLILDDIGAEQATSWVRDEVLQVILQYRMLEELPTFFTSNYSFADLERKWATIKGSDETWQAKRVMERVRYLAREFHLEGANRRLEHHHHHH”, the “soluble on expression in E. coli” value is “soluble”.
